# According to patent US20250206828A1, “ANTI-ADENOSINE RECEPTOR (A2aR) ANTIBODIES AND THE USE THEREOF” (Adept Therapeutics Inc., priority 2022, published 2025):
# Numbering of substitutions follows the chain as printed.
# B1: Hu3F8-H4/Hu3F8-L1 (antibody, human IgG1, V domains shown)
# VH: EVQLVQSGAEVKKPGASVKVSCKASGFTFTRYWMNWVRQAPGQGLEWIGRIDPSDSETHYNHKFWGRATLTVDKSTSTVYMELSSLRSEDTAVYYCLRSLYGKGDYWGQGTTVTVSS
# VL: DVVMTQSPLSLPVTLGQPASISCRSSQSIVHSNGNTYLEWFQQRPGQSPRRLIYKVSNRFSGVPDRFSGSGSGTDFTLKISRVEAEDVGVYYCYQGSHVPLTFGGGTKVEIK
# B2: Hu3F8-H4/Hu3F8-L2 (antibody, human IgG1, V domains shown)
# VH: B1 VH
# VL: B1 VL with F41Y
# B3: Hu3F8-H5/Hu3F8-L1 (antibody, human IgG1, V domains shown)
# VH: B1 VH with H62A
# VL: B1 VL
# B4: Hu3F8-H5/Hu3F8-L2 (antibody, human IgG1, V domains shown)
# VH: B1 VH with H62A
# VL: B1 VL with F41Y
# B5: Hu1B5-H2.1/Hu1B5-L1 (antibody, human IgG1, V domains shown)
# VH: B1 VH with A24T, Y32F, S54Y, H59Q, G66D, A68V, L70M, K74T, L97G
# VL: B1 VL with Y94F
# B6: Hu3F8-H6/Hu3F8-L1 (antibody, human IgG1, V domains shown)
# VH: EVQLVQSGAEVKKPGESLRISCKASGFTFTRYWMNWVRQMPGKGLEWIGRIDPSDSETHYNHKFWGHATLSVDKSSSTVYLQWSSLKASDTAMYYCLRSLYGKGDYWGQGTTVTVSS
# VL: B1 VL
# B7: Hu3F6-H5/Hu3F6-L1: humanized anti-A2aR IgG1 FES antibody; HCVR SEQ ID NO:62, LCVR SEQ ID NO:76 (antibody, V domains shown)
# VH: B1 VH with A24T, T28A, R31S, T58A, N61A, T76S, Q109H
# VL: B1 VL with I29L, S32R
# B8: Hu3F6-H5/Hu3F6-L2: humanized anti-A2aR IgG1 FES antibody; HCVR SEQ ID NO:62, LCVR SEQ ID NO:77 (antibody, V domains shown)
# VH: B1 VH with A24T, T28A, R31S, T58A, N61A, T76S, Q109H
# VL: B1 VL with I29L, S32R, F41Y
# B9: Hu3F6-H2/Hu3F6-L2: humanized anti-A2aR IgG1 FES antibody; HCVR SEQ ID NO:59, LCVR SEQ ID NO:77 (antibody, V domains shown)
# VH: B1 VH with A24T, T28A, R31S, I48M, T58A, N61H, A68V, L70M, K74T, Q109H
# VL: B1 VL with I29L, S32R, F41Y
# modifications: IgG1 FES constant regions
# B10: Hu3F6-H3/Hu3F6-L1: humanized anti-A2aR IgG1 FES antibody; HCVR SEQ ID NO:60, LCVR SEQ ID NO:76 (antibody, V domains shown)
# VH: B1 VH with A24T, T28A, R31S, T58A, N61H, K74T, T76S, Q109H
# VL: B1 VL with I29L, S32R
# B11: Hu3F6-H3/Hu3F6-L2: humanized anti-A2aR IgG1 FES antibody; HCVR SEQ ID NO:60, LCVR SEQ ID NO:77 (antibody, V domains shown)
# VH: B1 VH with A24T, T28A, R31S, T58A, N61H, K74T, T76S, Q109H
# VL: B1 VL with I29L, S32R, F41Y
# B12: Hu3F8-H4/Hu3F8-L1: humanized anti-A2aR IgG1 FES antibody; HCVR SEQ ID NO:67, LCVR SEQ ID NO:84 (antibody, V domains shown)
# VH: B1 VH
# VL: B1 VL
# B13: Hu3F8-H4/Hu3F8-L2: humanized anti-A2aR IgG1 FES antibody; HCVR SEQ ID NO:67, LCVR SEQ ID NO:85 (antibody, V domains shown)
# VH: B1 VH
# VL: B1 VL with F41Y
# B14: Hu3F8-H5/Hu3F8-L1: humanized anti-A2aR IgG1 FES antibody; HCVR SEQ ID NO:68, LCVR SEQ ID NO:84 (antibody, V domains shown)
# VH: B1 VH with H62A
# VL: B1 VL
# B15: Hu3F8-H5/Hu3F8-L2: humanized anti-A2aR IgG1 FES antibody; HCVR SEQ ID NO:68, LCVR SEQ ID NO:85 (antibody, V domains shown)
# VH: B1 VH with H62A
# VL: B1 VL with F41Y
# B16: Hu3F8-H6/Hu3F8-L1: humanized anti-A2aR IgG1 FES antibody; HCVR SEQ ID NO:70, LCVR SEQ ID NO:84 (antibody, V domains shown)
# VH: B6 VH
# VL: B1 VL
# B17: Hu3F8-H2/Hu3F8-L2: humanized anti-A2aR IgG1 FES antibody; HCVR SEQ ID NO:65, LCVR SEQ ID NO:85 (antibody, V domains shown)
# VH: B1 VH with I48M, A68V, L70M, K74T
# VL: B1 VL with F41Y
# B18: Hu3F8-H3/Hu3F8-L1: humanized anti-A2aR IgG1 FES antibody; HCVR SEQ ID NO:66, LCVR SEQ ID NO:84 (antibody, V domains shown)
# VH: B1 VH with K74T
# VL: B1 VL
# B19: Hu3F8-H3/Hu3F8-L2: humanized anti-A2aR IgG1 FES antibody; HCVR SEQ ID NO:66, LCVR SEQ ID NO:85 (antibody, V domains shown)
# VH: B1 VH with K74T
# VL: B1 VL with F41Y
# What was measured:
# [1] = system: human PBMCs (CD4 T, CD8 T, NK cells); assay: Restoration of IFN-γ and IL-2 production of NECA-suppressed T cells and NK cells (intracellular cytokine staining); assay type: cell-based; conditions: NECA; test substance 2 μg/ml
# Method: (§1) Two hundred thousand (2×10^5) human peripheral blood mononuclear cells (PBMCs) human PBMC in complete IMDM medium were aliquoted into each well in a 96-well plate and the cells in the 96-well plate were pre-incubated with antibodies or small molecule inhibitors at indicated concentration for 90 minutes, followed by addition of T cell activator anti-CD3/28 dynabeads (Gibco, Cat #11132D) at ratio of 1:4 (Beads: PBMC, v/v) and NECA (DiscoverX, Cat #92-1191, final concentration […]). Cells were cultured in an incubator at 37° C., 5% CO2 for 24 hours. Cells were then collected and stimulated with anti-CD3/28 dynabeads in the presence of GolgiPlug™ Protein Transport Inhibitor (BD Biosciences, Cat #555028) according to manufacturer's manual for 4 hours. Thereafter, cells were incubated with human TruStain FcX block (Biolegend, Cat #422302) and True-Stain monocyte blocker (Biolegend, Cat #426103) for 15 minutes according the manufacturer's manual, and cells were then stained with surface markers PE-anti-CD4 (Biolegend, Cat #300550), PerCP-cy5.5-anti-CD8 (Biolegend, Cat #301032), APC/cy7-anti-CD3 (Biolegend, Cat #300426) and PE/cy7-anti-CD56 (Biolegend, Cat #362509), PE/cy7-anti-CD56 (Biolegend, Cat #362509), BV711-anti-CD25 (Biolegend, Cat #302636) and BV605-anti-CD69 (Biolegend, Cat #31938 After wash with FACS buffer, cells were stained with BV421-anti-IFN-γ (BD Bioscience, Cat #562988) and APC anti-IL-2 (BD Bioscience, cat #551383) using intracellular cytokine staining kit (BD Biosciences, cat #555028) following manufacturer's instruction. Stained samples were analyzed on FACSAria III machine. Data were analyzed using Flowjo software.
# [2] = system: human PBMCs (CD4 and CD8 T cells); assay: Restoration of CD25 and CD69 activation markers on NECA-suppressed CD4 and CD8 T cells; assay type: cell-based; conditions: test substance 2 μg/ml
# Method: as §1
# [3] = target: human adenosine A2A receptor (A2aR) (human, UniProt P29274 1-412); assay: flow cytometry, HEK293-hA2aR cells, supernatant 1 ug/ml
# [4] = target: human A2aR (Homo sapiens, UniProt P29274); assay: Binding of humanized anti-A2aR antibodies in transfected Expi293F cell supernatant to human A2aR on HEK293 cells (FACS, MFI); conditions: supernatant with 1 μg/ml antibody; HEK293 overexpressing human A2aR; heavy chain (row) x light chain
# Method: Briefly, HEK293 cells that stably overexpress human A2aR (HEK-hA2aR OCL, BPS Bioscience, Cat. 79381) were collected from fresh culture. Cells were then resuspended in FACS buffer (1×DPBS/1% FBS) at 10^6/ml concentration. One hundred microliters (100 μl) of cells were aliquoted into each well of a 96 well plates. After centrifugation, cell pellets in each well were then resuspended with 100 μl normalized supernatant samples containing 1 μg/ml humanized anti-A2aR monoclonal antibody variants collected from transfected Expi293 cell culture. The supernatants were mixed with the cells and incubated on ice for 1 hours. After washing the mixtures of the supernatants containing expressed antibodies and the A2aR-expressing cells with FACS buffer, one hundred microliters (100 μl) of 1:400 diluted PE-conjugated anti-human Fc secondary antibody (Jackson Immuno Research, Cat. 109-116-098) was added to each well followed by an incubation for 30 minutes on ice. After washes with FACS buffer, stained cells were resuspended in 150 μl of 7-AAD (Biolegend, Cat. 420404) diluted 1:100 in 1×DPBS buffer and incubate for 5 minutes in the dark at room temperature before FACS analysis. The mean fluorescence intensity (MFI) was obtained using Guava 11HT or 5HT (Luminex). Data was analyzed using Flowjo software.
# As shown in Tables 22-24, exemplary humanized anti-A2aR antibodies bind to A2aR expressed on a cell surface. A greater MFI value means stronger binding of the exemplary antibody to A2aR expressed on a cell surface.
# Chain of human adenosine A2A receptor (A2aR) (P29274 whole entry): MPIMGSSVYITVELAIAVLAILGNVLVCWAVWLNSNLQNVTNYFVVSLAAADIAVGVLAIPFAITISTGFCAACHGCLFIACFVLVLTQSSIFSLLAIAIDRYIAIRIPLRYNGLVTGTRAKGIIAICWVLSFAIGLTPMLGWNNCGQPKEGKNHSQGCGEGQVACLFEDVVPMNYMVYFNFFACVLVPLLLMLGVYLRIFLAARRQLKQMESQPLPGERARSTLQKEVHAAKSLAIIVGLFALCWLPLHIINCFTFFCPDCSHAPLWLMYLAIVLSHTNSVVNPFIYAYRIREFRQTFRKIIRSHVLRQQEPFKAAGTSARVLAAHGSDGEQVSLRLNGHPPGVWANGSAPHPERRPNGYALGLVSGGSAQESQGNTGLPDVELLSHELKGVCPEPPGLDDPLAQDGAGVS
# Chain of human A2aR (P29274 whole entry): as above
molecule,measurement,setting,value
Cc1cc(-c2nnc(N)nc2-c2ccc(F)cc2)cc(Cl)n1 [AZD4635],"% of cells IFNγ+, CD4 T cells",[1],3.41%
same,"% of cells IFNγ+, CD8 T cells",[1],13.3%
same,"% of cells IFNγ+, NK cells",[1],8.91%
same,"% of cells IL-2+, CD4 T cells",[1],10.4%
same,"% of cells IL-2+, CD8 T cells",[1],2.57%
same,"% of cells CD25+, CD4 T cells",[2],48.8%
same,"% of cells CD25+, CD8 T cells",[2],26%
same,"% of cells CD69+, CD4 T cells",[2],48.1%
same,"% of cells CD69+, CD8 T cells",[2],49.1%
B1,MFI,[3],110 MFI
B2,MFI,[3],131 MFI
B3,MFI,[3],58 MFI
B4,MFI,[3],147 MFI
B5,MFI,[3],145 MFI
B6,MFI,[3],158 MFI
B7,"MFI, binding to human A2aR on cell surface (3F6-9G5 derived)",[4],25
B8,"MFI, binding to human A2aR on cell surface (3F6-9G5 derived)",[4],191
B9,"MFI, binding to human A2aR on cell surface (3F6-9G5 derived)",[4],146
B10,"MFI, binding to human A2aR on cell surface (3F6-9G5 derived)",[4],12
B11,"MFI, binding to human A2aR on cell surface (3F6-9G5 derived)",[4],200
B12,"MFI, binding to human A2aR on cell surface (3F8-12E9 derived)",[4],110
B13,"MFI, binding to human A2aR on cell surface (3F8-12E9 derived)",[4],131
B14,"MFI, binding to human A2aR on cell surface (3F8-12E9 derived)",[4],58
B15,"MFI, binding to human A2aR on cell surface (3F8-12E9 derived)",[4],147
B16,"MFI, binding to human A2aR on cell surface (3F8-12E9 derived)",[4],158
B17,"MFI, binding to human A2aR on cell surface (3F8-12E9 derived)",[4],38
B18,"MFI, binding to human A2aR on cell surface (3F8-12E9 derived)",[4],64
B19,"MFI, binding to human A2aR on cell surface (3F8-12E9 derived)",[4],93
